Assay results: patent US20220033784A1 (priority 2020, published 2022)
Like-named read-outs stand apart in the source and are kept apart here.

Assays:
Test in all cases: cell-based or functional assay
[1] = biological target: T1, human intermediate-affinity IL-2 receptor complex, IL-2 CD122/CD132 (β/γ), on cells (human, UniProt P14784 27-551; P31785 23-369)
T1 sequence (looked up) 1: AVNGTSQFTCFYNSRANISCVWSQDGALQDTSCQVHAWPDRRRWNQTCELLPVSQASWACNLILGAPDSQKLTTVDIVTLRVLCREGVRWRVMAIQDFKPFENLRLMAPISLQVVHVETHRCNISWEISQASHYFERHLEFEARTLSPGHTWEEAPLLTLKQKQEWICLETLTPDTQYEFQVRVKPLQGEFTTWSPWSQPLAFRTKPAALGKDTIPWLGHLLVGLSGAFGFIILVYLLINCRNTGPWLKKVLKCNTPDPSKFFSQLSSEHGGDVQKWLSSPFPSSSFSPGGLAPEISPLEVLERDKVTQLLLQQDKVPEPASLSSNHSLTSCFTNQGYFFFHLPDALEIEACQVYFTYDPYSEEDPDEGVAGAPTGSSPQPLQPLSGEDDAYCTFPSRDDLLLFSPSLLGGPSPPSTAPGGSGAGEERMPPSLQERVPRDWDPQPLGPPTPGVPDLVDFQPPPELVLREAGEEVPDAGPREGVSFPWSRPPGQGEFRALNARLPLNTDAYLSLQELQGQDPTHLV
T1 sequence (looked up) 2: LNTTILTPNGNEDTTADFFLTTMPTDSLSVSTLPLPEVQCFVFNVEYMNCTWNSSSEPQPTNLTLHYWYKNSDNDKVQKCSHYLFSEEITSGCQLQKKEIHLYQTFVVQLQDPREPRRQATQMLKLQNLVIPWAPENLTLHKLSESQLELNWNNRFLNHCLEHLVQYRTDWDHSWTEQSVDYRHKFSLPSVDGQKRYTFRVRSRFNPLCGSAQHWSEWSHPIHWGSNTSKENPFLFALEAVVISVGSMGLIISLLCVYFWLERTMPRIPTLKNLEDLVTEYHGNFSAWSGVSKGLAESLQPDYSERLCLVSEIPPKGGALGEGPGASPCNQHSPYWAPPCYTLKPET

[2] = biological target: T1, human intermediate-affinity IL-2 …; remark: listed apart in the source
[3] = biological target: T2, human high-affinity IL-2 receptor complex, IL-2 CD25/CD122/CD132 (α/β/γ), on cells (human, UniProt P01589 22-272; P14784 27-551; P31785 23-369)
T2 sequence (looked up) 1: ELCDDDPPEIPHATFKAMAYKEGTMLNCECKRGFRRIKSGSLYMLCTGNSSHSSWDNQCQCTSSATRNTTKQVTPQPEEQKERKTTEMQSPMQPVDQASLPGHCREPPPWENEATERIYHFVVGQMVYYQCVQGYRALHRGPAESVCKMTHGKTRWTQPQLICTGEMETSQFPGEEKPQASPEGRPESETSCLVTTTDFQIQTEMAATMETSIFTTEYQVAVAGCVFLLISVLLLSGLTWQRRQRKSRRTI
T2 sequence (looked up) 2: T1 sequence (looked up) 1
T2 sequence (looked up) 3: T1 sequence (looked up) 2

[4] = biological target: T1, human intermediate-affinity IL-2 …; remark: listed apart in the source
[5] = biological target: T1, human intermediate-affinity IL-2 …; remark: listed apart in the source
[6] = biological target: T2, human high-affinity IL-2 receptor …; remark: listed apart in the source
[7] = biological target: T2, human high-affinity IL-2 receptor …; remark: listed apart in the source
[8] = biological target: T2, human high-affinity IL-2 receptor …; remark: listed apart in the source
[9] = biological target: T1, human intermediate-affinity IL-2 …; remark: listed apart in the source
[10] = biological target: T2, human high-affinity IL-2 receptor …; remark: listed apart in the source

EC50 (read off the curve), pSTAT5 MFI in NK cells of hPBMC [1]: ~3 nM | EC50, pSTAT5 induction in HH T cells (ELISA) [2]: 24.9 nM | EC50, pSTAT5 induction in iTreg cells (ELISA) [3]: 0.31 nM | EC50 (read off the curve), pSTAT5 MFI in NK cells of hPBMC [4]: ~3 nM | EC50 (read off the curve), pSTAT5 MFI in NK cells of hPBMC [5]: ~3 nM | EC50 (read off the curve), pSTAT5 MFI in Treg cells of hPBMC [6]: ~8 nM | EC50 (read off the curve), pSTAT5 MFI in Treg cells of hPBMC [7]: ~8 nM | EC50 (read off the curve), pSTAT5 MFI in Treg cells of hPBMC [8]: ~8 nM | EC50, pSTAT5 in CD8 T cells of hPBMCs (flow cytometry) [9]: 11.3 nM | EC50, pSTAT5 in NK cells of hPBMCs (flow cytometry) [9]: 1.53 nM | EC50, pSTAT5 in Treg cells of hPBMCs (flow cytometry) [10]: 5.88 nM
B1: Fc-IL2v (Fc fusion)
chain: GGGGSGGGGSAPASSSTKKTQLQLEHLLLDLQMILNGINNYKNPKLTRMLTAKFAMPKKATELKHLQCLEEELKPLEEVLNGAQSKNFHLRPRDLISNINVIVLELKGSETTFMCEYADETATIVEFLNRWITFAQSIISTLT
